Measurements taken from paper PMC6405639 (2019).

Target: Y2R_cysteine_deficient_eYFP (in HEK293 cells) (human, UniProt P49146 1-381, C58^1.40A | C103^2.57S | C151^3.53S | C272^6.39A | C316^7.44A | C342^7.70A)
Sequence (P49146 other isoform, or with tags, fused parts or gaps with the stated changes): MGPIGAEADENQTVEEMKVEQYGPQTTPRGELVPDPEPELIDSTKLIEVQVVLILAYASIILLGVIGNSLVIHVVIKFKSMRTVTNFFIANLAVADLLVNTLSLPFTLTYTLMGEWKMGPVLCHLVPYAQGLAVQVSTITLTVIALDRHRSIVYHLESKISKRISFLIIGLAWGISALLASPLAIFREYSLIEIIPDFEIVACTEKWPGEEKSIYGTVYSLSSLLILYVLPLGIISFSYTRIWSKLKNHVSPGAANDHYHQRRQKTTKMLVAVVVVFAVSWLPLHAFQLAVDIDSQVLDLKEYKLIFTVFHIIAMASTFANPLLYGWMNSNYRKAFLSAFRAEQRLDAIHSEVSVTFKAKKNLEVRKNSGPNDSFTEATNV

B1: Porcine neuropeptide Y (peptide)
peptide: not shown
modifications: C-terminal amide
In the case of B1, the IC50 is reported as 8.2 nM.
